Assay results as given in paper PMC10501992, “How Pol α-primase is targeted to replisomes to prime eukaryotic DNA replication” (Molecular Cell, 2023).

B1: Ctf4 (budding yeast) (natural protein, UniProt Q01454 1-927, looked up)
chain: MVSVIDKLVFDFGGKTLVSLAPDNNTLCVANKNGLTKILKTNNPEEEPETLDSSKLVSSIKCYSNSHFLMTTMQGDALRYNIDSSQEELLARFALPLRDCCVIHSGKMAVFGGDDLELILLELDDETHKKHAIKIDEQVSQISYNSQMNILAVSMINGKVQIFSLTSTIPNKVHELNDYIVANSYDDTHRDKILSNMMDDIDKDNDNDLSETADPDENNVADPEFCAANRICTRVAWHPKGLHFALPCADDTVKIFSIKGYSLQKTLSTNLSSTKAHFIDLQFDPLRGTYIAAVDLNNKLTVWNWETSEIHYTREFKRKITNIAWKIQADSKTLDLVLGTWSGSIAIVQNLAESVVSNIPDQSVAESSTKHGLFVDSESDLENLEGNDDINKSDKLFSDITQEANAEDVFTQTHDGPSGLSEKRKYNFEDEEDFIDDDDGAGYISGKKPHNEHSYSRVHKTHSFPISLANTGKFRYMPFSPAGTPFGFTDRRYLTMNEVGYVSTVKNSEQYSITVSFFDVGRFREYHFEDLFGYDLCFLNEKGTLFGQSKTGQIQYRPHDSIHSNWTKIIPLQAGERITSVAATPVRVIVGTSLGYFRSFNQFGVPFAVEKTSPIVALTAQNYRVFSVHYSQFHGLSYSLSELGTSSKRYYKRECPLPMSLPNINSDMKKDANLDYYNFNPMGIKSLFFSSYGDPCIFGSDNTLLLLSKWRSPEESKWLPILDSNMEIWKMSGGKETTDIHVWPLALAYDTLNCILVKGKHIWPEFPLPLPSEMEIRMPVFVKSKLLEENKAILNKKNEIGADTEAEEGEEDKEIQIPVSMAAEEEYLRSKVLSELLTDTLENDGEMYGNENEVLAALNGAYDKALLRLFASACSDQNVEKALSLAHELKQDRALTAAVKISERAELPSLVKKINNIREARYEQQLK
notes: Ctf4, S. cerevisiae; the results say that Ctf4 was not added to the yeast reconstitution; the general method lists Ctf4/AND-1 among the proteins added; source: endogenous Ctf4 likely co-purifying with CMG from S. cerevisiae
B2: Pol12 (budding yeast Pol α accessory subunit) (natural protein, S. cerevisiae)
chain: MSGSIDVITHFGPDADKPEIITALENLTKLHALSVEDLYIKWEQFSNQRRQTHTDLTSKNIDEFKQFLQLQMEKRANQISSSSKVNTSTKKPVIKKSLNSSPLFGLSIPKTPTLKKRKLHGPFSLSDSKQTYNVGSEAETNEKGNSSLKLEFTPGMAEDAVGDSAPLSHAKSSDAKTPGSSTFQTPTTNTPTTSRQNVPAGEILDSLNPENIEISSGNPNVGLLSTEEPSYNQVKVEPFYDAKKYKFRTMRQNLQEASDVLDDQIESFTKIIQNHYKLSPNDFADPTIQSQSEIYAVGRIVPDSPTYDKFLNPESLSLETSRMGGVGRRVRLDLSQVNELSFFLGQIVAFKGKNANGDYFTVNSILPLPYPNSPVSTSQELQEFQANLEGSSLKVIVTCGPYFANDNFSLELLQEFIDSINNEVKPHVLIMFGPFIDITHPLIASGKLPNFPQFKTQPKTLDELFLKLFTPILKTISPHIQTVLIPSTKDAISNHAAYPQASLIRKALQLPKRNFKCMANPSSFQINEIYFGCSNVDTFKDLKEVIKGGTTSSRYRLDRVSEHILQQRRYYPIFPGSIRTRIKPKDVSTKKETNDMESKEEKVYEHISGADLDVSYLGLTEFVGGFSPDIMIIPSELQHFARVVQNVVVINPGRFIRATGNRGSYAQITVQCPDLEDGKLTLVEGEEPVYLHNVWKRARVDLIAS
notes: Pol12, S. cerevisiae; modelled residues 1-79, 203-582 and 604-705; stood in the assay as a subunit of m1; also called Pol12NTD; source: subunit of Pol α-primase from S. cerevisiae strain yAE95, purified as described previously
B3: Psf2 (budding yeast GINS subunit) (natural protein, S. cerevisiae)
chain: MSLPAHLQQTFSPEEIQFIVENEPIKIFPRITTRQKIRGDDRGTGNHTRWQLITTDDKALNNMVAMRSTEVVLWIALLLKQQSKCSIVAPQWLTTKELDRKIQYEKTHPDRFSELPWNWLVLARILFNKAKDDFHDPIHELRGKIQDLREIRQIKVLKGLKYLNESHLQLDNLSLLEINELRPFITEIMDKLREIHTASLTAGTENDEEEFNI
notes: Psf2, subunit of GINS, S. cerevisiae; stood in the assay as a subunit of m2; source: subunit of CMG from S. cerevisiae strain yJY197, purified as described previously
B4: Pri1 (budding yeast primase catalytic subunit) (natural protein, S. cerevisiae)
chain: MTNSVKTNGPSSSDMEYYYKSLYPFKHIFNWLNHSPKPSRDMINREFAMAFRSGAYKRYNSFNSVQDFKAQIEKANPDRFEIGAIYNKPPRERDTLLKSELKALEKELVFDIDMDDYDAFRTCCSGAQVCSKCWKFISLAMKITNTALREDFGYKDFIWVFSGRRGAHCWVSDKRARALTDVQRRNVLDYVNVIRDRNTDKRLALKRPYHPHLARSLEQLKPFFVSIMLEEQNPWEDDQHAIQTLLPALYDKQLIDSLKKYWLDNPRRSSKEKWNDIDQIATSLFKGPKQDSHIIKLRECKEDLVLMTLYPKLDVEVTKQTIHLLKAPFCIHPATGNVCVPIDESFAPEKAPKLIDLQTEMEKNNDVSLTALQPFINQFQAYVSSLLKNELGSVKREREDDDEPASLDF
notes: Pri1, S. cerevisiae; modelled aside from its flexible N and C termini; stood in the assay as a subunit of m1; source: subunit of Pol α-primase from S. cerevisiae strain yAE95, purified as described previously

Columns and labels:
Test in all cases: cryo-EM structure; budding yeast replisome: 150 nM CMG on fork DNA (39 nt 3′ flap, 60 nt 5′ flap) with 1.5-fold molar excess of Tof1-Csm3, Mrc1 and Pol α-primase; 25 mM HEPES-NaOH pH 7.6, 150 mM NaOAc, 0.5 mM TCEP, 500 μM AMP-PNP, 10 mM Mg(OAc)2, on ice; 10-30% glycerol gradient with glutaraldehyde and BS3 cross-linkers
[1] = molecular target: T1, budding yeast CMG (Cdc45-Mcm2-7-GINS) replicative helicase (S. cerevisiae, UniProt Q08032 1-650; P29469 1-868; P24279 1-971; P30665 1-933; P29496 1-775; P53091 …); details: both partners purified
T1 construct: Cdc45, S. cerevisiae; Mcm2, S. cerevisiae; Mcm3, S. cerevisiae; Mcm4, S. cerevisiae (named only within Mcm2-7); Mcm5, S. cerevisiae; Mcm6, S. cerevisiae (named only within Mcm2-7); Mcm7, S. cerevisiae (named only within Mcm2-7); Psf1, subunit of GINS, S. cerevisiae; Psf2, subunit of GINS, S. cerevisiae; Sld5, subunit of GINS, S. cerevisiae; source: S. cerevisiae strain yJY197, expressed and …

[2] = molecular target: T2, Pol1 (budding yeast Pol α catalytic subunit) (S. cerevisiae, UniProt P13382 1-1468); details: both partners purified
T2 construct: Pol1, S. cerevisiae; modelled: CTD 1271-1468 and CIP box F140-S149; stood in the assay as a subunit of m1; also called Pol1CTD; Pol1CIP; source: subunit of Pol α-primase from S. cerevisiae strain yAE95, purified as described previously
T2 sequence: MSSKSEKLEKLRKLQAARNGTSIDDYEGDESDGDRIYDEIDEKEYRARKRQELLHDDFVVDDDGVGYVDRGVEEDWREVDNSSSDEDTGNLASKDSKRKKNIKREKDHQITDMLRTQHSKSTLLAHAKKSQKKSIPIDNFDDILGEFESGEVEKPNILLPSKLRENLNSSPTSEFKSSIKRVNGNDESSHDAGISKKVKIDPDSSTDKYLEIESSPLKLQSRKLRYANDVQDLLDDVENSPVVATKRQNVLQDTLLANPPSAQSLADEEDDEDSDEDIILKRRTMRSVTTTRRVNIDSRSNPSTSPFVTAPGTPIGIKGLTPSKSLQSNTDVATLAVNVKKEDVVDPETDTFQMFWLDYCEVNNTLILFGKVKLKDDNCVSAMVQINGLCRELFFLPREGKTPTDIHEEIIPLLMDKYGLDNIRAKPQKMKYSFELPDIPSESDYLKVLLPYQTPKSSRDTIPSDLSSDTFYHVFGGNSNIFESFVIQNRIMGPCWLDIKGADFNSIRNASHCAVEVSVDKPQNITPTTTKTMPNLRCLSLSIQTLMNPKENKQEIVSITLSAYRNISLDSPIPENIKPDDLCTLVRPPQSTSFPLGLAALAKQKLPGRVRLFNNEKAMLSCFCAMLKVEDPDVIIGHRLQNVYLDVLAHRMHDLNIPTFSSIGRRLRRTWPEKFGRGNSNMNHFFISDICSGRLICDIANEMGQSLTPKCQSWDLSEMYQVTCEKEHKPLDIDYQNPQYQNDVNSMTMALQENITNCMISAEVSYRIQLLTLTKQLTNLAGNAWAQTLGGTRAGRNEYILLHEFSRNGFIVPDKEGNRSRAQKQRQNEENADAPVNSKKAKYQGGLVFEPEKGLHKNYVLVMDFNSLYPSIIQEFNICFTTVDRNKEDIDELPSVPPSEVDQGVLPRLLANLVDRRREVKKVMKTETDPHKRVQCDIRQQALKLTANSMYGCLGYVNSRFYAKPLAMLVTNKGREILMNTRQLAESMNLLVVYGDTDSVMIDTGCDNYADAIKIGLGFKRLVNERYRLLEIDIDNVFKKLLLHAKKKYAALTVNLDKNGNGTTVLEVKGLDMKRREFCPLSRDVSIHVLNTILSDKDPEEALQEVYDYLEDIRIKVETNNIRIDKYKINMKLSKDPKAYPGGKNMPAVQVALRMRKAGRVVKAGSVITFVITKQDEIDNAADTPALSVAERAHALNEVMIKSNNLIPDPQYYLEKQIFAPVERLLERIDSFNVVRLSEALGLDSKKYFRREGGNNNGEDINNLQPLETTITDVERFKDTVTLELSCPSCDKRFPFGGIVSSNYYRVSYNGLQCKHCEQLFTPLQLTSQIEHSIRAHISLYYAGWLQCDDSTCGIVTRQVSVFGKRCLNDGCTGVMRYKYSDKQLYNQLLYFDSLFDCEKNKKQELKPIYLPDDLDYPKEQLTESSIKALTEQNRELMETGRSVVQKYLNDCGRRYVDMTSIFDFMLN

[3] = molecular target: the molecule itself
Mcm3 (budding yeast) = molecular target: T3, Mcm3 (budding yeast) (S. cerevisiae, UniProt P24279 1-971); details: both partners purified
T3 construct: Mcm3, S. cerevisiae; stood in the assay as a subunit of m2; source: subunit of CMG from S. cerevisiae strain yJY197, purified as described previously
T3 sequence (P24279 whole entry): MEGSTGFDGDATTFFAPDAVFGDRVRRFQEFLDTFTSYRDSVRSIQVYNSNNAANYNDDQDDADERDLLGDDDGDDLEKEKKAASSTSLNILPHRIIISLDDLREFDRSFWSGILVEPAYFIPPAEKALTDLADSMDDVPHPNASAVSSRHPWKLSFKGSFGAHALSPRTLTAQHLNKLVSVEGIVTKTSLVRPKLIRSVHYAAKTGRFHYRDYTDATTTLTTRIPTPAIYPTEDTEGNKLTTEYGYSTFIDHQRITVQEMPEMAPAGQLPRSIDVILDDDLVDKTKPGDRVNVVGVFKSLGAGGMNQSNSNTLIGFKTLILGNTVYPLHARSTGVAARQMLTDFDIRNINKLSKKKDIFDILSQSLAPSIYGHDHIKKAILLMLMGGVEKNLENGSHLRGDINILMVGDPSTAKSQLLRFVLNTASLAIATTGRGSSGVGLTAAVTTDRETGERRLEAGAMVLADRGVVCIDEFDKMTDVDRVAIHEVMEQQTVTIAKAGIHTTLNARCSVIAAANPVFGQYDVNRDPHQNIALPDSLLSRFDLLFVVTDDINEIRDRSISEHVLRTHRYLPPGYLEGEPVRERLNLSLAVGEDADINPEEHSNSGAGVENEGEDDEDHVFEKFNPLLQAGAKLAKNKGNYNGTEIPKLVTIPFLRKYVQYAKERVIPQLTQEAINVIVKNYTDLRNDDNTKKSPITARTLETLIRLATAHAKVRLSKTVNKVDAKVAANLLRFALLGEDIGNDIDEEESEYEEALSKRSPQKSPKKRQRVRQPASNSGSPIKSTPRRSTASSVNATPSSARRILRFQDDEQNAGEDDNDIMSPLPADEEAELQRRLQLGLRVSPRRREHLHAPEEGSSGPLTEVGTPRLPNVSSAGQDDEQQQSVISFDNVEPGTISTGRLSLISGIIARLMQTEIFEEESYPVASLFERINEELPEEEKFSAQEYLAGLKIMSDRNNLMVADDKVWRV

[4] = molecular target: T4, Pri2 (budding yeast primase accessory subunit) (S. cerevisiae, UniProt P20457 1-528); details: both partners purified
T4 construct: Pri2, S. cerevisiae; modelled residues 1-5 (N terminus), 44-177 and 181-299 (NTD); stood in the assay as a subunit of m1; also called Pri2NTD; Pri2_(Nterm); source: subunit of Pol α-primase from S. cerevisiae strain yAE95, purified as described previously
T4 sequence: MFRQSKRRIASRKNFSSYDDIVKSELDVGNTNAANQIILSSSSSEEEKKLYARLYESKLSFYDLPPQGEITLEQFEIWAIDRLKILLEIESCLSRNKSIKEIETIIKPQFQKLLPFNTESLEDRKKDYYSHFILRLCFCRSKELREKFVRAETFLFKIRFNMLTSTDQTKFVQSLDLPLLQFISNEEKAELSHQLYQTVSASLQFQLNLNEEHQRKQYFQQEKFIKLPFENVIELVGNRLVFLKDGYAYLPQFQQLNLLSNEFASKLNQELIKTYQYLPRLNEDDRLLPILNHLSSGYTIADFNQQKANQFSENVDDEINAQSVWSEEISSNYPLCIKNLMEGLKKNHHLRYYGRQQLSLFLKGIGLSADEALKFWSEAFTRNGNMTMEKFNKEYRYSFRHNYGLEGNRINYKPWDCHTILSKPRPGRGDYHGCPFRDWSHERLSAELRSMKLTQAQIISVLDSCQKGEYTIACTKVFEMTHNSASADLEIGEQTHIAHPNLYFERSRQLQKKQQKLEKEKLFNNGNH

Binder	binding result [1]	binding result [2]	stoichiometry N [3]	binding result (Mcm3 (budding yeast))	binding result [4]
B1	binds	binds	3	–	–
B2	–	binds	–	binds	–
B3	–	–	–	–	binds
B4	–	–	–	–	binds
